Reference: article PMC4631479, “The structure of the GemC1 coiled coil and its interaction with the Geminin family of coiled-coil proteins” (Acta Crystallographica Section D: Biological Crystallography, 2015)

Target: the molecule itself
Assay: SEC-MALS; Superdex 75 HR 10/30 with miniDAWN light-scattering and refractive-index detectors; 100 ul of purified tGemC1 dimer at ~2.0 mg/ml injected

B1: tGemC1^L123,130E (GemC1 coiled-coil domain variant, residues 64-146, L123E and L130E) (domain or fragment, human, UniProt A6NCL1 64-146, looked up)
chain: DSNFPLPDLCSWEEAQLSSQLYRNKQLQDTLVQKEEELARLHEENNHLRQYLNSALVKCEEEKAKKELSSDEFSKAYGKFRKG
notes: Geminin coiled-coil domain-containing protein 1 (GemC1), human, UniProt A6NCL1, residues 64-146, with L123E and L130E; codon-optimized synthetic gene; The His tag is called cleavable; also called tGemC1 homodimer; tGemC1-tGemC1; source: expressed from pETNKI-His-3CLIC-kan, purified (IMAC, size-exclusion chromatography)
  stoichiometry N: 2
